Data: patent US20170081400A1 (CEPHALON, published 2017)
Residue numbers refer to the chain shown, from its start. Names and notes keep the numbering of the source.

B1: 320-315 (antibody, human IgG1, name in Kabat numbering, V domains shown)
VH: QVQLVQSGAEVKKPGASVKVSCKASGYTFTSYDINWVRQAPGQGLEWMGWLNPNSGNTGYAQKFQGRVTMTADRSTSTAYMELSSLRSEDTAVYYCAREVPETAAFEYWGQGTLVTVSS
VL: QSVLTQPPSVSGAPGQRVTISCTSSSSDIGAGLGVHWYQQLPGTAPKLLIEGYYNRPSGVPDRFSGSKSGTSASLTITGLLPEDEGDYYCLSYDGTLSALFGGGTKLTVLG
notes: human IgG1, lambda
B2: 320-421 (antibody, human IgG1, V domains shown)
VH: B1 VH with F29Y
VL: QSVLTQPPSVSGAPGQRVTISCTSSSSDIGAGLGVHWYQQLPGTAPKLLIEGYYNRPSGVPDRFSGSKSGTSASLTITGLLPEDEGDYYCQSYDGTLSALFGGGTKLTVL
notes: human IgG1, lambda; the other rows have T at 28 and F at 29, so F29Y is probably meant
B3: 320-332 (antibody, human IgG1, name in Kabat numbering, V domains shown)
VH: B1 VH
VL: B1 VL with L91Q, D94A
notes: human IgG1, lambda
B4: 320-418 (antibody, human IgG1, name in Kabat numbering, V domains shown)
VH: B1 VH with F29K
VL: B1 VL with L91Q
notes: human IgG1, lambda
B5: 320-417 (antibody, human IgG1, name in Kabat numbering, V domains shown)
VH: B1 VH with F29H
VL: B1 VL with L91Q
notes: human IgG1, lambda
B6: 320-317 (antibody, human IgG1, name in Kabat numbering, V domains shown)
VH: B1 VH
VL: B1 VL with L91Y
notes: human IgG1, lambda
B7: 320-327 (antibody, human IgG1, name in Kabat numbering, V domains shown)
VH: B1 VH
VL: B1 VL with L91Q, Y93Q
notes: human IgG1, lambda
B8: 320-428 (antibody, human IgG1, name in Kabat numbering, V domains shown)
VH: B1 VH with T30L
VL: B1 VL with L91Q
notes: human IgG1, lambda
B9: 320-320 (antibody, human IgG1, name in Kabat numbering, V domains shown)
VH: B1 VH
VL: B1 VL with L91Q, S92D
notes: human IgG1, lambda
B10: 320-431 (antibody, human IgG1, name in Kabat numbering, V domains shown)
VH: B1 VH with S31A
VL: B1 VL with L91Q
notes: human IgG1, lambda
B11: 320-319 (antibody, human IgG1, name in Kabat numbering, V domains shown)
VH: B1 VH
VL: B1 VL with L91Q, S92Q
notes: human IgG1, lambda
B12: 320-325 (antibody, human IgG1, name in Kabat numbering, V domains shown)
VH: B1 VH
VL: B1 VL with L91Q, Y93A
notes: human IgG1, lambda
B13: 320-333 (antibody, human IgG1, name in Kabat numbering, V domains shown)
VH: B1 VH
VL: B1 VL with L91Q, D94S
notes: human IgG1, lambda
B14: 320-423 (antibody, human IgG1, name in Kabat numbering, V domains shown)
VH: B1 VH with T30S
VL: B1 VL with L91Q
notes: human IgG1, lambda
B15: 320-426 (antibody, human IgG1, name in Kabat numbering, V domains shown)
VH: B1 VH with T30H
VL: B1 VL with L91Q
notes: human IgG1, lambda
B16: 320-419 (antibody, human IgG1, name in Kabat numbering, V domains shown)
VH: B1 VH with F29L
VL: B1 VL with L91Q
notes: human IgG1, lambda
B17: 320-427 (antibody, human IgG1, name in Kabat numbering, V domains shown)
VH: B1 VH with T30K
VL: B1 VL with L91Q
notes: human IgG1, lambda
B18: 320-429 (antibody, human IgG1, name in Kabat numbering, V domains shown)
VH: B1 VH with T30W
VL: B1 VL with L91Q
notes: human IgG1, lambda
B19: 320-424 (antibody, human IgG1, name in Kabat numbering, V domains shown)
VH: B1 VH with T30Q
VL: B1 VL with L91Q
notes: human IgG1, lambda
B20: 320-340 (antibody, human IgG1, name in Kabat numbering, V domains shown)
VH: B1 VH
VL: B1 VL with L91Q, G95A
notes: human IgG1, lambda
B21: 320-430 (antibody, human IgG1, name in Kabat numbering, V domains shown)
VH: B1 VH with T30Y
VL: B1 VL with L91Q
notes: human IgG1, lambda
B22: 320-330 (antibody, human IgG1, name in Kabat numbering, V domains shown)
VH: B1 VH
VL: B1 VL with L91Q, Y93L
notes: human IgG1, lambda
B23: 320-422 (antibody, human IgG1, name in Kabat numbering, V domains shown)
VH: B1 VH with T30A
VL: B1 VL with L91Q
notes: human IgG1, lambda
B24: 320-331 (antibody, human IgG1, name in Kabat numbering, V domains shown)
VH: B1 VH
VL: B1 VL with L91Q, Y93W
notes: human IgG1, lambda
B25: 320-420 (antibody, human IgG1, name in Kabat numbering, V domains shown)
VH: B1 VH with F29W
VL: B1 VL with L91Q
notes: human IgG1, lambda
B26: 320-337 (antibody, human IgG1, name in Kabat numbering, V domains shown)
VH: B1 VH
VL: B1 VL with L91Q, D94L
notes: human IgG1, lambda
B27: 320-416 (antibody, human IgG1, name in Kabat numbering, V domains shown)
VH: B1 VH with F29D
VL: B1 VL with L91Q
notes: human IgG1, lambda
B28: 320-316 (antibody, human IgG1, name in Kabat numbering, V domains shown)
VH: B1 VH
VL: B1 VL with L91W
notes: human IgG1, lambda
B29: 320-425 (antibody, human IgG1, name in Kabat numbering, V domains shown)
VH: B1 VH with T30D
VL: B1 VL with L91Q
notes: human IgG1, lambda

Tests used:
[1] = molecular target: T1, human TL1A extracellular domain with N-terminal HIS and FLAG tag (human, UniProt O95150 72-251); experiment: SPR Run 4, purified Ab captured on Protein A, TL1A 5 ug/mL, timepoint 44
T1 construct: the whole entry is named
T1 sequence: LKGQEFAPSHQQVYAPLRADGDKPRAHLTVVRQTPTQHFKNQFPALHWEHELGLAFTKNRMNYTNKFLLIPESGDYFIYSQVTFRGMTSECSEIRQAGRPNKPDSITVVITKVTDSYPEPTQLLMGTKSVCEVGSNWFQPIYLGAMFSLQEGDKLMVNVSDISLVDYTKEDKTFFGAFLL
Source text: (§1) 1.5. Antibody expression and antigen binding as determined by SPR. Using a CM5 sensor chip (GE Healthcare) Protein A (Pierce) was coupled to the chip surface using an amine coupling kit (GE Healthcare). Protein A was coupled on flow cell 1 and 2 (or alternatively 3 and 4) using a BIACORE® T200. […] The amount of supernatant or purified protein (as well as the concentration) injected during the capture stage varied between runs and is specified in the header of the Tables 3-11. At the end of injection of the supernatant or purified antibody the change in response units was measured. This value was reported as Capture Level in Tables 3-11. […] The response units were measured prior to the end of the dissociation phase. […] The sensorgrams were double referenced (flow cell 2 is subtracted from flow cell 1 and a buffer blank). As there were a large number of antibody variants to screen, these were screened across different runs (Tables 3-11). […] A summary of the conditions used in each run is below:
(§2) 2.1. […] In some experiment the antibodies were purified using Protein A chromatography (See 1.4) and purified antibodies were used in BIACORE® (GE Healthcare) experiments.

[2] = molecular target: T1, human TL1A extracellular domain with …; experiment: SPR Run 4, purified Ab captured on Protein A, TL1A 5 ug/mL, timepoint 220
Source text: as §1, §2

[3] = molecular target: T1, human TL1A extracellular domain with …; experiment: SPR Run 5, Ab from supernatant captured on Protein A, TL1A 5 ug/mL, timepoint 44
Outline: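 The capture level was the response change at the end of loading, which varied by run. Antigen response was read before dissociation ended, double-referenced against a reference flow cell and a buffer blank.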

[4] = molecular target: T1, human TL1A extracellular domain with …; experiment: SPR Run 5, Ab from supernatant captured on Protein A, TL1A 5 ug/mL, timepoint 220
Outline: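 CM5 chip, amine-coupled Protein A; capture of supernatant or purified Ab (load varies per run); capture level = ΔRU at end of injection; binding RU read late in dissociation; double referencing (reference cell + buffer blank).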

Row | Binder | TL1A Binding Level (Early) [1] [RU] | TL1A Binding Level (Late) [2] [RU] | TL1A Binding Level (Early) [3] [RU] | TL1A Binding Level (Late) [4] [RU]
1 | B1 | 85 | 82 |  | 
2 | B2 |  |  | 9 | 8
3 | B3 | 66 | 44 |  | 
4 | B4 |  |  | 10 | 9
5 | B5 |  |  | 9 | 8
6 | B6 | 86 | 83 |  | 
7 | B7 | 130 | 119 |  | 
8 | B8 |  |  | 11 | 10
9 | B9 | 31 | 17 |  | 
10 | B10 |  |  | 6 | 6
11 | B11 | 18 | 14 |  | 
12 | B12 | 95 | 83 |  | 
13 | B13 | 95 | 67 |  | 
14 | B14 |  |  | 10 | 10
15 | B15 |  |  | 10 | 9
16 | B16 |  |  | 11 | 9
17 | B17 |  |  | 11 | 10
18 | B18 |  |  | 12 | 11
19 | B19 |  |  | 11 | 10
20 | B20 | 145 | 132 |  | 
21 | B21 |  |  | 6 | 6
22 | B22 | 139 | 119 |  | 
23 | B23 |  |  | 10 | 9
24 | B24 | 173 | 176 |  | 
25 | B25 |  |  | 11 | 10
26 | B26 | 21 | 15 |  | 
27 | B27 |  |  | 9 | 8
28 | B28 | 65 | 62 |  | 
29 | B29 |  |  | 14 | 12
